Starred links: 1 amine or outer side, 2 acyl side, 3 side chain; linkers in the order of their positions; H or OH if unused. Non-standard residues stand in square brackets, D forms with d. rhArg = homoarginine with ψ(CH2NH) reduced amide bond, N=C(N)NCCCC[C@@H](C[*:2])N[*:1]; rHis = histidine with ψ(CH2NH) reduced amide bond, c1nc(C[C@@H](C[*:2])N[*:1])c[nH]1; rLys = lysine with ψ(CH2NH) reduced amide bond, C(CC[C@@H](C[*:2])N[*:1])CN[*:3]; Oic = O=C(O)[C@@H]1C[C@@H]2CCCC[C@@H]2N1; Phe(4-Cl) = N[C@@H](Cc1ccc(Cl)cc1)C(=O)O; 2Nal = N[C@@H](Cc1ccc2ccccc2c1)C(=O)O; hArg = N=C(N)NCCCC[C@H](N)C(=O)O; Cha = N[C@@H](CC1CCCCC1)C(=O)O; Gly(N-CH2CH2OH) = O=C(O)CNCCO; αMeOrn = C[C@](N)(CCCN)C(=O)O; αMeP = C[C@@]1(C(=O)O)CCCN1; Nle = CCCC[C@H](N)C(=O)O; Orn = NCCC[C@H](N)C(=O)O; Nlys = NCCCCNCC(=O)O
T1: human APJ receptor (human, UniProt P35414 1-380)
T1 sequence (looked up): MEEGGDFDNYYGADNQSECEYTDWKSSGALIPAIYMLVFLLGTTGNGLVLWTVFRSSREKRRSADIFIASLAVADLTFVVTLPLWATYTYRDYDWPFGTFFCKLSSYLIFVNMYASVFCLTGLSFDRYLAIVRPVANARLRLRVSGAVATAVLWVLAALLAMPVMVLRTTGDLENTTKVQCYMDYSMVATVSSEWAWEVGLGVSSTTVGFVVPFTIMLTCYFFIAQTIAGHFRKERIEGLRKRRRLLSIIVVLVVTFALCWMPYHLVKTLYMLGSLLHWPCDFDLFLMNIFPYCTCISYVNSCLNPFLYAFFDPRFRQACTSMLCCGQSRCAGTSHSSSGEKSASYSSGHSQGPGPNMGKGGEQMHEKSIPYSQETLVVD

T2: rat APJ receptor (rat, UniProt Q9JHG3 1-377)
T2 sequence (looked up): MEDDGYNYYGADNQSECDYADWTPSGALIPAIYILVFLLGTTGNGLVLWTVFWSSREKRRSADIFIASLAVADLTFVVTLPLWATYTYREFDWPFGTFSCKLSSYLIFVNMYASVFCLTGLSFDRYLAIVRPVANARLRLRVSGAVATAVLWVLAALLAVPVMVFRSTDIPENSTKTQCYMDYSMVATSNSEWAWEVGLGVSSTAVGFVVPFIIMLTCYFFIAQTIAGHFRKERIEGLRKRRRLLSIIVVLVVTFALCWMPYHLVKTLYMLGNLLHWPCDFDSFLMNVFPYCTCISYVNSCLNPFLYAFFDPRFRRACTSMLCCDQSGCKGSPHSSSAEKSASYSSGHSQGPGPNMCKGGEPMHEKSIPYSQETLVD

B1: apelin polypeptide SEQ ID NO: 39 (peptide)
peptide: Ac-[Orn]F[hArg][hArg]Q[hArg]P[rhArg][Cha]SHKG[Oic][Nle]P[Phe(4-Cl)]-OH
modifications: also: reduced amide bond (CH2NH) at residue 8
B2: apelin polypeptide SEQ ID NO: 41 (peptide)
peptide: Ac-[Orn]F[hArg][hArg]Q[hArg]P[hArg][Cha]SH[rLys]G[Oic][Nle]P[Phe(4-Cl)]-OH
modifications: also: reduced amide bond (CH2NH) at residue 12
B3: apelin polypeptide SEQ ID NO: 40 (peptide)
peptide: Ac-[Orn]F[hArg][hArg]Q[hArg]P[hArg][Cha]S[rHis]KG[Oic][Nle]P[Phe(4-Cl)]-OH
modifications: also: reduced amide bond (CH2NH) at residue 11
B4: apelin polypeptide SEQ ID NO: 32 (peptide)
peptide: Ac-[Orn]F[hArg][hArg]Q[hArg]P[hArg][Cha]SH[Nlys]G[Oic][Nle]P[Phe(4-Cl)]-OH
B5: apelin polypeptide SEQ ID NO: 31 (peptide)
peptide: Ac-[Orn]F[hArg][hArg]Q[hArg]P[hArg][Cha][Gly(N-CH2CH2OH)]HKG[Oic][Nle]P[Phe(4-Cl)]-OH
SMILES: CCCC[C@H](NC(=O)[C@@H]1C[C@@H]2CCCC[C@@H]2N1C(=O)CNC(=O)[C@H](CCCCN)NC(=O)[C@H](Cc1c[nH]cn1)NC(=O)CN(CCO)C(=O)[C@H](CC1CCCCC1)NC(=O)[C@H](CCCCNC(=N)N)NC(=O)[C@@H]1CCCN1C(=O)[C@H](CCCCNC(=N)N)NC(=O)[C@H](CCC(N)=O)NC(=O)[C@H](CCCCNC(=N)N)NC(=O)[C@H](CCCCNC(=N)N)NC(=O)[C@H](Cc1ccccc1)NC(=O)[C@H](CCCN)NC(C)=O)C(=O)N1CCC[C@H]1C(=O)N[C@@H](Cc1ccc(Cl)cc1)C(=O)O
B6: apelin polypeptide SEQ ID NO: 33 (peptide)
peptide: Ac-[Orn]F[hArg][hArg]Q[hArg][αMeP][hArg][Cha]SHKG[Oic][Nle]P[Phe(4-Cl)]-OH
B7: apelin polypeptide SEQ ID NO: 49 (peptide)
peptide: Ac-[Orn]F[hArg][hArg]QRP[hArg][Cha]SHKGP[Nle][2Nal]-OH
SMILES: CCCC[C@H](NC(=O)[C@@H]1CCCN1C(=O)CNC(=O)[C@H](CCCCN)NC(=O)[C@H](Cc1c[nH]cn1)NC(=O)[C@H](CO)NC(=O)[C@H](CC1CCCCC1)NC(=O)[C@H](CCCCNC(=N)N)NC(=O)[C@@H]1CCCN1C(=O)[C@H](CCCNC(=N)N)NC(=O)[C@H](CCC(N)=O)NC(=O)[C@H](CCCCNC(=N)N)NC(=O)[C@H](CCCCNC(=N)N)NC(=O)[C@H](Cc1ccccc1)NC(=O)[C@H](CCCN)NC(C)=O)C(=O)N[C@@H](Cc1ccc2ccccc2c1)C(=O)O
B8: apelin polypeptide SEQ ID NO: 36 (peptide)
peptide: Ac-[Orn]F[hArg][hArg]Q[hArg]P[hArg][Cha]SH[αMeOrn]G[Oic][Nle]P[Phe(4-Cl)]-OH
B9: apelin polypeptide SEQ ID NO: 48 (peptide)
peptide: Ac-[Orn]F[hArg][hArg]QRP[hArg][Cha]SHKGP[Nle][Phe(4-Cl)]-OH
SMILES: CCCC[C@H](NC(=O)[C@@H]1CCCN1C(=O)CNC(=O)[C@H](CCCCN)NC(=O)[C@H](Cc1c[nH]cn1)NC(=O)[C@H](CO)NC(=O)[C@H](CC1CCCCC1)NC(=O)[C@H](CCCCNC(=N)N)NC(=O)[C@@H]1CCCN1C(=O)[C@H](CCCNC(=N)N)NC(=O)[C@H](CCC(N)=O)NC(=O)[C@H](CCCCNC(=N)N)NC(=O)[C@H](CCCCNC(=N)N)NC(=O)[C@H](Cc1ccccc1)NC(=O)[C@H](CCCN)NC(C)=O)C(=O)N[C@@H](Cc1ccc(Cl)cc1)C(=O)O
B10: apelin polypeptide SEQ ID NO: 38 (peptide)
peptide: Ac-[Orn]F[hArg][hArg]Q[rhArg]P[hArg][Cha]SHKG[Oic][Nle]P[Phe(4-Cl)]-OH
modifications: also: reduced amide bond (CH2NH) at residue 6

target: T1, human APJ receptor; experiment: cell-based or functional assay

Binder | EC50 Human APJ Receptor
B1 | 0.253 nM
B2 | 0.151 nM
B3 | 0.234 nM
B4 | 0.25 nM
B5 | 0.116 nM
B6 | 0.0985 nM
B7 | 0.159 nM
B8 | 0.355 nM
B9 | 0.287 nM
B10 | 0.0869 nM

target: T2, rat APJ receptor; experiment: cell-based or functional assay

Binder | EC50 Rat APJ Receptor
B1 | 0.323 nM
B2 | 0.817 nM
B3 | 1.45 nM
B4 | 1.51 nM
B5 | 0.703 nM
B6 | 0.318 nM
B7 | 0.291 nM
B8 | 1.94 nM
B9 | 0.486 nM
B10 | 1.3 nM
